Earlier results as cited in publication PMC4030972.

Target: cholera toxin A1 subunit CtxA1 (Vibrio cholerae) (UniProt P01555)
UniProt P01555, sequence (P01555 19-212): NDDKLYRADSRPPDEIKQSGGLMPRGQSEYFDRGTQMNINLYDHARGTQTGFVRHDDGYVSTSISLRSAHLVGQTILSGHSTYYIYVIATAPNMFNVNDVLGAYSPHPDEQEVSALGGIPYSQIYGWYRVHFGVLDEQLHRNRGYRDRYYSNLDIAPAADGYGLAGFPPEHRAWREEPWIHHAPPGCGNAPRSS

Substance: Hsp90 (from UniProt P08238)
- Kd: 7 nM
